Measurements taken from the DeepSol protein solubility set.

Test: soluble on expression in E. coli; label from the status in PepcDB or PDB records

| Sequence | soluble on expression in E. coli |
| --- | --- |
| MNLPEVSEKLIEQLNHGSTKAFDKIYHTYYLYLCAIAVYYVHDKRVAGEIVNDVFVSFWQNRHHITYPALPYLRRAIQNASISYLRSSAFNERIMTEQMEEIWAFLENHILSSDNPLQALESSEMNEIILRKVEELPAKCRAVFKASLYEGKSYSEIAEEQNINVATVRVQMKIALTKLRESLGTPYMIAILMFL | not soluble |
| FLSDGKEIIAEKDEAIRETVKLLEEGHILAIKGIGGTHLACKVGEDDVVLELRKRLGRPTQPFAVMSKIEYTELFAEFDEDEKNALLSLRRPIVVLKKSQDYDKYFSKYVSNLDTIGVMFPYSGLHYLLFDKEIAYVMTSANLPGLPMVKDNDEILKKLNGIADYFLLHNRRIVNRCDDSVVKKVADRLVFLRRSRGFAPEPVKV | not soluble |
| MELPFSQACENNKDPILEVLKTAFSDCTRVLEVGSGTGQHAVYFASQLPNIHWQASDQKEYLPGVTARIKQEGVTNQPLPVEFDVFADAPGGTFNALFTANTCHIMPKEGVERLFEHLEGDLSSVERLCIYGPFNDNGHFTSDSNRGFHQSLQSRNSDMGIRDWQWITELANQQGFELKKIHPLPANNQLLEFQRLEHHHHHH | soluble |
| SLPTIIGLAAVARSGKDTVASMLMEHPEVATYALADPLKAGCQAIFGLSDAEAWSDEAKEKTIDLWGLSPRQLFQRAGTEWLRDHNADHWLLRADRQLNHKPVEPRPVSATELASPSASIWLGVQAFWGLTEAQTWQDDLRAAEDPFWNITPKEMFAIVDRYLSRDFPSYVSTRSKRAISTPTRPLTNAAGKSIFIIKDIRYENEAAFWRSHNGVIWHITRNNAIKVQSHSSEDGIEFRNGDISIENNDTIEELRKKVESAWSCVRVD | soluble |
| MLLTPAKTTRTEDSANSTDDSSKSSNSFMRAIVSSLMVKPITSLTNTVTCRQSSHHNSSPSKITRYDLIKAAAENDLKRSKSQGREKSRRNSNRRNNEEIFVANTASEIQRTKSSI | soluble |
| MGSDKIHHHHHHMGQSSEDAAMTLQPFDGFGLGLRPPHYRAFLDSERPLVDFVEVISENFMVGGGRPLHVIDAVRERYPVALHGVSMSVGSADGVKLDYLRRLKGLADRVDPMWVSDHLCWTGVEGFNSHDLLPVPYTEEAMAVVCANIALAQDVLERPLLLENPSSYVTFANDAMAEHQFLAEMCARTGCYLLLDINNIYVSASNHGFDPYEYLAAVPVDRVLQIHLAGHSQGRELLIDTHDQPVPDSVWALYEAAAGRFGPVAAMIERDDDIPPLDDLLAELDVARARWAAGRRGSLAA | not soluble |
| HMNAEINPLHAYFKLPNTVSLVAGSSEGETPLNAFDGALLNAGIGNVALIRISSIMPPEAEIVPLPKLPMGALVPTAYGYIISDVPGETISAAISVAIPKDKSLCGLIMEYEGKCSKKEAEKTVREMAKIGFEMRGWELDRIESIAVEHTVEKLGCAFAAAALWYK | soluble |
| MRKFIFILLLIISSFSFCSNEISVDKSVEESVTKDYDQDGKYSSYERALRNAQGSIYVTLPEKRGYWYTILDRIKAEEDELMPDEKARIRRK | not soluble |
| MAEEQARHVKNGLECIRALKAEPIGSLAIEEAMAAWSEISDNPGQERATCREEKAGSSGLSKPCLSAIGSTEGGAPRIRGQGPGESDDDAETLGIPPRNLQASSTGLQCHYVYDHSGEAVKGIQDADSIMVQSGLDGDSTLSGGDNESENSDVDIGEPDTEGYAITDRGSAPISMGFRASDVETAEGGEIHELLRLQSRGNNFPKLGKTLNVPPPPDPGRASTSGTPIKKGTDARLASFGTEIASSLTGGATQCARKSPSEPSGPGAPAGNVPECVSNAALIQEWTPESGTTISPRSQNNEEGGDHYDDELFSDVQDIKTALAKIHEDNQKIISKLESLLLLKGEVESIKKQINRQNISISTLEGHLSSIMIAIPGLGKDPNDPTADVEINPDLKPIIGRDSGRALAEVLKKPVASRQLQGMTNGRTSSRGQLLKEFQLKPIGKKMSSAVGFVPDTGPASRSVIRSIIKSSRLEEDRKRYLMTLLDDIKGANDLAKFHQMLVKIIMK | soluble |
| GPGSWIVSRGLNYSDPMNSVVARWVQHSRVRRLTTPISCFGLFIFTATCMQLPYDFRLLREASAGIDRQTALLKKSMDERYLAYREGKIAKEQLEAKEAEAFAKSMKVQ | soluble |
| MGISEIIRSHRKKENLTQEQVANYLNISTPAVNKWENGITYPDITLLAPLARILKIDVNTLLAFNEELTEKEVNKLGRSVGEIVEKEGYQKAFEKGSDLIKQYSSCDELILRISSILRLFLVTAKVEKKDIYEDKIIAWAEIVAASRNEKTADMAKIFLSAVYRDKKEYKKAKEILDKVPDMELGSDKKIQQLLLLESSGEFDKAYGACEEVLLYNAQESLGAMVLIIRMLLKENKFSEAEEYTQRAKKLVEVFDLGEYSKYTLELSLIKEKRDEEKAVELIRNMIDNADSMNNFMRSKLYKHRKIEVTNSLDKDRYKKIVRMSIIKDKALDFVKDDPRVKSLLK | not soluble |
| MGSDKIHHHHHHMSEALTIAGVDIQPGTQHQLELPVASLYTDTQVSIPVHVIRAKKDGPKVFVSAAVHGDELNGIEIIRRLIQSKLKLLKGTLILVPMVNVYGVLNQSRYMPDRRDLNRCFPGSPKGSLAGRVAYTFLNSIVQHCDYGIDLHTGAIHRSNLPQIRANLDDEQTLALAQAFGVPVLLNANVRDGSLREAAVNKGTRVLLYEAGQALRFDELSIQTGERGILNVLSSLGLIRKRRLRKKIEPFIANRSDWTRASASGFVCEFAKLGAYVEKGQVLAEINSPLGELIQSVVSNRTGIVIGKQNIPLVLEGDAMFHVAYFGSAADEVAEHIEIMNDQIMPLTTQTI | not soluble |
| ENSVFFGKKKKVSLHLLVDPDMKDEIIKYAQEKDFDNVSQAGREILKKGLEQIA | soluble |
| MALHPAHPGAIIGHEAVLALLPRLTAQTLLFSGPEGVGRRTVARWYAWGLNRGFPPPSLGEHPDVLEVGPKARDLRGRAEVRLEEVAPLLEWCSSHPRERVKVAILDSAHLLTEAAANALLKLLEEPPSYARIVLIAPSRATLLPTLASRATEVAFAPVPEEALRALTQDPELLRYAAGAPGRLLRALQDPEGYRARMARAQRVLKAPPLERLALLRELLAEEEGVHALHAVLKRPEHLLALERAREALEGYVSPELVLARLALDLET | soluble |
| MSLWLAGTWYTGQRIETESQTRLNEINAQLAAAFPEFPVRINQLKLERGFFTSQARYGVEVGKSEETGKPEATVEVDARIEHGPFAPGALARGKLMPQLAFVHAEVANTEDLKKVFEVTKGATPLWSDTVVAYNGDSTSTGGLAAIDYSGDEGKFAFSGATFDGSYQRATQAAIGSLKADSLALDASADDDGGPLLFTLDGLAVTVDSRMGKSGLSIGDSALSVKRLEVKQPEGDAHLTVADMAYAARIGEQDEFINGEISYGAGEITYNGIALGNGRAVFKAERLNAAAIKVVADEYNKAIKLQAEGKDPVPDNAEMRKLLMAQADTLLAGKPVLTLDPVQWKTAQGESVFNARVALSKPASSDLMAVDYFSQAIESIDASATLSKPMIKALMVGYLQSQEGMDAQQAAAAADQQVSSLAGMAEMMNLGKNEGDNIVSKFHYAAGTVDLNGRKMPADQLLGSILGGEGHHHHHH | not soluble |
| MLNLSGLSLSCEYQPFVCPHTKHIHGYEALARFYLGQGQAIAPNLVFEQLHENSNALAAVEFQAKTFQLKHAPARQSLFVNVDPHAANGVHTQKLLDLLSSHPQLTVEIIENTCISDAELANQLFHQFKTANLNVALDDIGAPHSMLSVDLMMNVDYLKFDRHWLNLVAEPHGIALLSALIEFGKRTGKQCILEGIETEAQLQLARELNVDLVQGFLFKPWFIRPEQSERLIC | soluble |
| MSLTKMRESEIIRMFIEEFDNHALGDDAGFVRFNDSWLLVTSDMLVWRTDVPDFMTPEEAGKKVVTMNVSDIAAMGGLPLAFFFSLGVPENTDEKTLRGIAKGINKGAKEYGVKIVSGDTNEAREIIIDGGAIGRGSRLLLRSNAKPGDLVCVTGELGRPLTALLLWLKGEEIPPKILEKAKNPKAREREGIELSNYANSAIDISDGLSKELWEIARSSNVRIVIDEDKIPVNEEVREIVKDPIKIALASGEEFELVFTIPKENLGNISFDFTIIGRVEEGEGVYIKREDKMERLPILGWEHLKGGDYVNLEGHHHHHH | soluble |
